Source: a protein production outcome set (Wang et al. 2014)
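Further: failed if final PepcDB status was selected cloned or expressed and not failed if soluble or beyond.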

Assay: label from the status in PepcDB records
In the case of “MNEELKKSIAASIENTRFDILQMIELGRELIDYPDEIHHGPVVSMGVPKDTLPKWDDIQILTAQLHKKPLIDDAPVDTQLVIGPRAQKPLVLDIPLLVGDMSYGALSKRAKQALSKGADLAGTAICSGEGGILGDELELNQSYMFELGSARNGLKKNSDLSQFSKDFKGKVKAFHFKGGQAAKTGTGGHLPGGKVTEEIAKARQIEVGKDAISPSTFADFHTPRDFADFADQIRDQMGGIPIGFKISANHIEDDMRFALDAGADYIILDGRGGSTGAAPGIFRDHISVPTIAALARARKFLDVAGHEKGAKNSVTLIITGGLRIPSDFIKALALGADGIALANSALQAIGCTGARICYSGDCPAGIATHAQHLVNKIDVDARARDLALFFNGSVHLMKIMTRACGHHSLREFSRDDICTWKAEISRLAGIPYAGVDPSNP”, the protein production is reported as “failed”.
For “MNEFAQSPRSCVLGCSGLGYSVRGTPLLSDVDLSIATGETLAVVGPNGSGKSTLLKLLAGIQKPGSGAVRLGEQALAAMSRRDVARLLAVVEQQAETSDAVTVLDAVELGRTPWLSALEPWSANDDAIVRQALQDVDMLHMQKRAWHTLSGGERQRVHIARALAQRPQILLLDEPTNHLDIQHQLTILGLVRALPVTTVIALHDLNQALDCDRVAVMEKGRLVALGTPVEVLTPKRLLSTFGVVAHWLTDPFDGAKILRLRSR”, the protein production was “failed”.
For “MNEFEDLLNSVSEVNPGDVVTAEVLTVDNGQANVVIEGTGVEGVLTLRELTNDRDADINDFVKAGDTVEVLVLRQVVGKDTDTVTFLVSKKRLEARKAWDKLVGREGEVVTVKGTRAVKGGLSVEFEGLRGFIPASMIDTRFVRNTEKFVGQEFDAKIKEVDAAENRFILSRREVIEEAAKEARAEVFSKISEGAVVTGTVARLTSFGAFIDLGGVDGLVHVTELSHERNVSPKSVVSVGEEVEVKVLSIDEEAGRVSLSLKATTPGPWDGVEQKLAQGDVVEGKVKRLTDFGAFVEVLPGIDGLVHISQISHKRVENPKDVLSVGQEVTVKVLEVNAADERVSLSIKALEERPAQAEGDNKEEKRQSRPRRPKRESRRDYELPETQTGFSMADLFGDIEL”, the protein production was “failed”.
In the case of “MNEFTAVKELSEKLLEDYKTESSFFFASPTRTILAEGEFTTVKHHEIESFPELVQAVLRNAKQAGNPNPIVVGALPFDRRKEVQLIVPEYSRISERLQLDPTNHLEINRNLTFEMTPVPDHEVYMKGVKQGIEKIKDGDLKKIVLSRSLDVKSSGKIDKQKLLRELAEHNKHGYTFAVNLPKDENENSKTLIGASPELLVSRHGMQVISNPLAGSRPRSDDPVEDKRRAEELLSSPKDLHEHAVVVEAVAAALRPYCHTLYVPEKPSVIHSEAMWHLSTEVKGELKNPNTSSLELAIALHPTPAVCGTPMEEAREAIQKIEPFDREFFTGMLGWSDLNGDGEWIVTIRCAEVQENTLRLYAGAGVVAESKPEDELAETSAKFQTMLKALGLNDSSLNEK”, the protein production is reported as “not failed”.
With “MNELPIILLSPLIGGALAWLIRVKGIREAIGVVSSAIPLYFLIKLYPALEGEPIRYSLNVGGFELTLALSHISWIFAMIAAVVGLSAVLGLVSTAKDSNEWLFALMSLAGALGVFLANDFVVFFLSWEIMTFASFMMVFKYNRHASLKYFVLSIAGAYAMLLAIGIIYAKTGSLSFPEISAIFRQDAMMGMMGGGGVFTKTETLLIYALFLVAFGVKAGMFPLHVWAPDAYSETNQSYTAMFSGVLSKTGVYGFFLLYLLMYGKLAITLGNVRSAPTFGYIIAFLGGLTIMVGGILAALQEDIRKLFAYSSISQIGYILIGLGIGTPLGIAAATYHAISHALFKGLFFLIVATIIYRTGKTEFKDYGGLAEKMPITFAMAFVAILSLAGIPPMAGFASKWLIFEAVISRNLPILGAMVFFGSAIGFVYLIRFTYAVWFGQRPSDLEDVKDAPLPLAIGMGILAILNVIFGVAPGLVARELNKLFSNPPIGGTIWELDLGFGRYNGLLLSIWLVIGLIIAAILYFMGAGVRKVPVTDTYQSGNPVTMEYNLTIRRNFFLPLKEAMAFWLKMSFDRLYHDIWKAIEELADLARSYVYNGNIQAYAWYLAIILLILVAMGV” the protein production was “failed”.
In the case of “MNENHLLDLEEQKTDLGRVEISPEVIEVIAGIAASEVEGVATMRGNFAAGVAEKLGYKNHGKGVKVDLNDEGIIVDVSVIILYGVSVPEVAKKIQQNIKQALQTMTAIELQSINVHIVGVHFEAVDGEEETKLEHHHHHH”, the protein production is reported as “failed”.
In the case of “MNEQRLSMRLERVATHVPAGARLADIGSDHGYLPVALLNRGAVSAAVAGEVALTPFYAAERTVRENDLDQQISVRLADGLAAIEPTDRITAISLCGMGGETIRDILESGKARLSGQERLILQPNGGEQPLRVWLMEHNYRILDEEVLRENRFDYEIIVAERTGPMIYTAEQLYFGPIQMQTRSPAFLLKWQRLLGKKHKALSNFARARKAVPEEKMQDLAQQIRWITALLN”, the protein production is reported as “failed”.
In the case of “MNFDRIFAWPLTSLEVFMNLALPSQYQFLPRFFRLATIAVLSNMMVPLAGLVDTAFLGHLEDIDYLAGVILGSILFDYLYRVLKFLRTSTTALTAQAVGEEDQAEVWVAGLRSALVALLLGLGILALQYPLQKFGFALLTGAPGVEQSGMDYFYGRIWGAPAVLLNFVILGWLLGQERNGLVLLISLVANFSNVGLDYLMINRWGWASAGAGWATASSQYLALALGLISIVVLAQGEKEKGEFKAAIAKLSDWGALRATIALKGNILIRFVILITTYSLFTNISSSFGTEVLAQNGLLLQIALLSQFTIQGVGMTSQTLTGNFKSKGEYQLLLPVLLTAIVTTLLMALGFAAVAIAFPETLFGLLTNHAEINDSVRQYTIWLIPLLESTALAFMLEAYFIGLKASQPLRNGVLFAFFGIYLPCLGLAIWQQSNNLLWFSLVSYMLGLVVYLGWQLLTRFSPQTLALESKQPS”, the protein production is reported as “failed”.
In the case of “MNFIQSNLNNLLAIAWFALCWGGYTRYAIWKGRDTACLASVLHLYREDWMRRMLLRDNRIADASVIGNLERNASFFASSTLIILAGILTVLGASDRALSLLADLPLVQQTSQGMSEIKLLCLAMVFVYAFFTFSWCMRQYNFAAVLVGSAPMIGERLVNELERKAFASRAARVLSLAANQFNLGLRSYYFGMAMLSWFISPWLFMAMSVGVVLILYRREFHSDVLDVMVFTPTESVLSEPAKESSVVSN”, the protein production is reported as “failed”.
For “MNFISDQVKKLSSSTPEEPDHNKPVEGTETATRPATNAELMASAKVVAEAAQAAARNESDKLDKGKVAGASADILDAAEKYGKFDEKSSTGQYLDKAEKYLNDYESSHSTGAGGPPPPTSQAEPASQPEPAAKKDDEESGGGLGGYAKMAQGFLK”, the protein production was “failed”.
With “MNFIVIGAGNIGSGIAQNLLEDGHEVEIADKSRESLNRIRGRNPKIRTREFDVMDRSAYRMLNDYDASVSALPGSIGMQFLKNVAKMGKIVVDVSYMEEDPYDLNGIAQSAGTIIVPDMGFAPGLTNAIVGYFSADLDQIRNVKIYVGGIPEKPVPPLDYTITWSVEG” the protein production was “failed”.
In the case of “MNFLSIFVLIPLLMLAGLWAARGIKAIRGVMVTGASALLIASVVLTFMYLGERSAGNTAEMLFRADTLWYAPLHISYSVGVDGISVAMLLLSAVIVFTGTFASWRLQPLTKEYFLWFTLLSMGVFGFFISIDLFTMFMFYEIALIPMYLLIGVWGSGRKEYAAMKLTLMLMGGSAFLLIGILGIYFGSGATTMNLLEIAQLHNIPFAQQCIWFPLTFLGFGVLGALFPFHTWSPDGHASAPTAVSMLHAGVLMKLGGYGCFRIAMYLMPEAANELSWIFLILTGISVVYGAFSACVQTDLKYINAYSSVSHCGLVLFAILMLNQTAATGAILQMLSHGLMTALFFALIGMIYGRTHTRDVRELTGLMKVMPFLSVCYVIAGLANLGLPGLSGFIAEMTIFVGSFQNNDVFHRTLTIIACSSIVITAVYILRLVGKILYGTCTNKHHLALTDATWDERVAVICLIVCVAGLGMAPFWVSHMIGESVLPVVSQLIP”, the protein production is reported as “failed”.
With “MNFNQFENQNFFNGNPSDTFKDLGKQVFNYFSTPSFVTNIYETDELYYLEAELAGVNKEDISIDFNNNTLTIQATRSAKYKSEQLILDERNFESLMRQFDFEAVDKQHITASFENGLLTITLPKIKPSNETTSSTSIPIS” the protein production was “failed”.
In the case of “MNFNYQTAWPSLSRSFEWSPAMTSSSVNPAEKFDRSRADEYARQSRIALAGYDACHDLAACMLAASLGEGRAAHILAVGAGGTAQEIIAMASLEPGWRFTAVDPSAPMLETARQQLQAQGLLERTEVRLATVDELAADEPFDGATLIGVLHHLPGDEAKRQLLRAIARRLKPGAPLIVAGNHYAYAGQPLLLAAWGQRWRQQGATADEVHAKLGKILQGADPPHSEAAVQRLLEEGGFSAGTRFFSSLFWGAWLSRKRC”, the protein production is reported as “failed”.
In the case of “MNFSESFKLSGLLCRFSPDGKYLASCVQYRLVIRDVTTLQILQLYTCLDQIQHIEWSADSLFILCAMYRRGLVQVWSLEQPEWHCKIDEGSAGLVASCWSPDGRHILNTTEFHLRITVWSLCTKSVSYIKYPKACQQGLTFTRDGRYLALAERRDCRDYVSIFVCSDWQLLRHFDTDTQDLTGIEWAPNGCVLAAWDTCLEYKVLLYSLDGRLLSAYCAYEWSLGIKSVAWSPSSQFLAIGSYDGKVRLLNHVTWKMITEFGHPATINNPKTVVYKEAEKSPLLGLGHLSFPPPRAMAGALSTSESKYEIASGPVSLQTLKPVADRANPRMGVGMLAFSSDSYFLASRNDNVPNAVWIWDIQKLKLFVVLEHMSPVRSFQWDPQQPRLAICTGGSKVYLWSPAGCVSVQVPGEGDFPVLGLCWHLSGDSLALLSKDHFCLCFLETKERVGTAYEQRDGMPRT”, the protein production is reported as “failed”.
For “MNFVELAKKRYSCRNYQDRKVEKEKLEKVLDVARIAPTGGNRQPQRLIVIQEKEGINKLSKAANIYDAPLAILVCGDKDKVWTRPFDGKQLTDIDTSIVTDHMMLQATELGLASVWVCYFNPDIIREEFSLPDNLEPINILLMGYESKIPESPERHEKTRVPLSEIVSYETL”, the protein production was “failed”.
With “MNFVLSDVADAEAEKAIRDPLVAYNLARFGESDKRDLNITIRNDDNSVTGGLVGHTARGWLYVQLLFVPEAMRGQGIAPKLLAMAEEEARKRGCMGAYIDTMNPDALRTYERYGFTKIGSLGPLSSGQSITWLEKRF” the protein production was “not failed”.
In the case of “MNGKLNLPINTVIGVSLLVLLLVPALYFAKPVLLPMVISTFVALLFSPLINYFEDKGLPRTITVVVTLTLLVSVSILGLAAISEPAKQWWAELPSIVQNVSQEVNEVTKASSEHMNAPLELASDMNIDEMGNNTVFSLLKALATTTPTLLTQAMIVLFMVYFMLNHGRSLFRKSVSRLRGFSKQRQAVELVQALQKDLSRYIGTITLVNAGLGLCVGLVFFVLGLEDPFLWGAFAGVMNFAPYLGPVISMASFGFVAYLQLDSVSFMLTVVSIYLLLNLIESQFVTPTLLGRRFNLNPLVIFMWLVFWGWLWGGMGLLIGVPLLVCINILADRLALCGSTNI”, the protein production is reported as “failed”.
For “MNGMGGALRAASGKLNGLLNFARQLAFVKLFGVYLPRNNQFNNATACADLLCKAEVIPGSESHFRPRRQPDASGAASGIAGRQSAGASGARQQSSNEENHDARRHGRRGRVHRDRAFRNRMRGERSARRHRSGIGRLIRRALRSRAAHGIARRRVSRAIAGGVGRGRPGRGHDARGGDAGRRRRDGRAIRAAAGCGHARAGRARAGHAHVGRARVRRHDSRRFVAMGEYGGLAARLGCARRFQHRCAGDAARLVRGCAAGARREPRPHVRADPGDSLSRQSRVARCRARSGLMRVLFAISLLAVAWLAGCTGLRGGIERDARRESNESAALFKRASDGDNSVHALAPVVVDDGLWVSAGAVKLRSGEQLPPLFDEPASFDRAVSSLSEFAEQITRLTQVPTQVAASAQQAAARSQQGGGADGAARSAPVFLDAAGARSTPPLPPGMPGGASAGGGKAGGSGAGPDGGAGTSFAPVRIVYAGGTLRGLLDAACARFGVFWKYEQGTIRFFFTDTRTFQVNAIPGDSSLNASVVSGATSDGTSGGSQSGGSGGGINGASGGTTGLTANNTANTAVNSQLSVFNGLQSAIQSMLSRYGSSVSSPATGSISVTDTPDVLERVAAFMTQQNRSLSRQVLLNVTVLSVSLKAGDAYGIDWSLVYKTMSAGFNITNPFNPVSLTKPADLSATVLSPTSRFNGTKLLIRALSQQGTVRRKTSASVTTLNNQPVPVQVATQTGYLASVSTTNTANVGSSTALTPGVVTTGFNMTLLPHVLDDGTVMLQFSTNISSLLQLKEVSSSTGGRSAARIQTPDVDMRNFLQRVAMKSGETLVISGYEGANDSLDERGVGTPKMIALGGGYEAQRAREVIVILITPVTQRGGA”, the protein production was “failed”.
